{"source": "paper PMC7062719", "about": "“Full-length human GLP-1 receptor structure without orthosteric ligands” (Nature Communications, 2020)", "molecular_target": "T1, Human GLP-1R (Arg24-Leu422) fragment (human, UniProt P43220)", "T1 construct": "GLP-1 receptor, human, residues Arg24-Leu422; N-terminal HA-FLAG-B2-HRV14-3C tags and C-terminal HPC4-HRV14-3C-10x His tags; no 3C cleavage is described; also called detergent solubilized GLP-1R; source: Sf9 insect cells, baculovirus, co-expressed with DNGαs and Gβ1γ2; solubilised in LMNG/CHS, purified as a complex (HPC4 resin, SEC); not shown: HPC4, C-terminal, kept", "T1 sequence (P43220 24-422)": "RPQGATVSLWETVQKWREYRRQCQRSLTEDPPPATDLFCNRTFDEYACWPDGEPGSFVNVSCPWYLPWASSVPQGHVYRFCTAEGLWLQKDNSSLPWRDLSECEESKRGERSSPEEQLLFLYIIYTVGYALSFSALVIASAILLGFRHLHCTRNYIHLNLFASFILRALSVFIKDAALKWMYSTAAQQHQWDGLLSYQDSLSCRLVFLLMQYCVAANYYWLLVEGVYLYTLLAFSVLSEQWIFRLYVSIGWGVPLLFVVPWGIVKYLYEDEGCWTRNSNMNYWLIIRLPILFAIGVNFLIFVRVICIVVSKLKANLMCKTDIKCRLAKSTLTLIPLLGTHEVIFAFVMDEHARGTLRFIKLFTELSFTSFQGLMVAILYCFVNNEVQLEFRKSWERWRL", "assay": "SEC + other: negative stain EM; Fab7F38 added at an estimated 1:1 ratio to the HPC4-purified GLP-1R–semaglutide–Gs–Nb35 complex, SEC on Superose 6 Increase (20 mM HEPES pH 7.5, 100 mM NaCl, 2 mM MgCl2, 1 μM semaglutide, LMNG/CHS), peak fraction used for single-particle 2D class averages", "conditions": "both partners purified", "data": [{"binder": "Fab7F38 (Fab, V domains shown, source: ExpiCHO-S cells, transient transfection, purified (Protein G Sepharose, SEC Superdex 75)) VH: EVQLQQSGPELVKPGASVKMSCKAPGYTFTSYVTHWVKQKPGQGLEWIGYINPYNDSPKYNEKYKAKATLTSDKSSSTVYMELSSLTSEDSAVYYCARIGYFRYDEGGNYALDYWGQGTSVTVSS VL: QIVLTQSPAIMSASPGEKVTISCSASSSVSYMYWYQQKPGSSPKPWIYRTSKLASGVPVRFSGSGSGTSYSLTISNMEAEDAATYYCQQFHTYPWTFGGGTKLEIK", "values": [{"measurement": "binding result", "value": "binds"}]}]}
